Assay results published in US12653899B2, “Multi-targeted, tunable, sustained delivery of payloads to charged avascular tissues” (Massachusetts Institute of Technology, priority 2019, dated 2026).

Experiments:
[1] = tested on: human cartilage explants (knee); assay: Quantitative uptake of cationic S-GFPs into human knee cartilage explants; type: in vitro ADME; details: donor knee; PBS+1% BSA or BSF
From the text: Two human knee joint distal femurs were obtained through the Gift of Hope Organ and Tissue Donor Network (Itaska, IL). A Collins grade 0 normal knee was from a donor and a near-normal grade 1 from a person. (The Collins visual grading scale grades spans grades 0-4 [20], with grade 0=normal and grade 4=end stage osteoarthritis.) All procedures were approved by the Rush University Medical Center Institutional Review Board (ORA Number: 08082803IRB01-AM01) and the Committee on the Use of Humans as Experimental Subjects at MIT. […]
Experiments to quantify the uptake of GFPs into cartilage were started after the explants had been pre-equilibrated in culture medium for 48 h post-harvest. […] (Standard 96-well cell culture plates were not used because S-GFPs could stick to polystyrene even in the presence of BSA, leading to a loss of protein. In contrast, use of polypropylene with 1% BSA enabled complete recovery of fluorescence). […] At the same time, the fluorescence of the absorption bath was measured using a plate reader (Synergy H1, Biotek Instruments Inc.) (excitation: 485 nm, emission: 528 nm). […] At the end of the desorption in 10×PBS+1% BSA, cartilage explants were weighed and the fluorescence of the desorption bath was measured. […] The uptake ratio was calculated as the ratio of GFP concentration inside cartilage (mol/mg wet weight) to the final absorption bath concentration (mol/mL).

[2] = tested on: bovine cartilage explants; assay: GFP penetration into bovine cartilage explants (confocal microscopy); type: in vitro ADME
Description: Bovine cartilage explants were incubated for either 24 h or 8 days (37° C., 5% CO2) in 1 μM solutions of the cationic S-GFPs dissolved in PBS+1% BSA. Similarly, explants were placed in 1 μM solutions of the neutral GFPs for either 18 h or 26 h. In a separate series of experiments, bovine cartilage explants were cultured in ultra-low attachment cell culture plates (Corning) for a period of 8 days in 1 μM solutions of cationic S-GFPs dissolved in low glucose (1 g/L) DMEM (with no phenol red) with 10% fetal bovine serum (FBS) supplemented with 2 mM Lglutamine, 100 U/mL penicillin, […] streptomycin, […] amphotericin, 10 mM HEPES buffer, 0.1 mM nonessential amino acids (NEAA) and 0.4 mM proline (37° C., 5% CO2). Media changes were performed every 48 h, and fresh cationic S-GFP were added with each media change. At the end of all such experiments, explants were sectioned longitudinally into […] slices and washed with PBS. Primary bovine chondrocytes were incubated for 24 h (37° C., 5% CO2) in 100 nM solutions of GFPs dissolved in serum-free medium having the same composition as that described in the bovine cartilage harvest section. At the end of 24 h, chondrocytes were washed three times with heparin dissolved in PBS (20 U/mL) to remove non-internalized GFPs, fixed with 4% paraformaldehyde, stained with DAPI and washed with PBS. […]

Substance	24 h uptake ratio compared among cationic S-GFPs [1]	extent of penetration into cartilage explant ([2]; 24 h in PBS+1% BSA, 1 mm thick bovine explants)	localization within cartilage explant ([2]; by day 8 in PBS+1% BSA, bovine explants)
+25 GFP: engineered supercharged green fluorescent protein carrier with net positive charge +25, SEQ ID NO: 3	significantly lower compared to the other two GFP variants	–	–
+36 GFP: engineered supercharged green fluorescent protein carrier with net positive charge +36, SEQ ID NO: 4	significantly lower compared to the other two GFP variants	did not	localized primarily inside chondrocytes throughout the tissue thickness
